# Data: patent publication US20140011734A1 (Sanofi, published 2014)
# Starred links: 1 amine or outer side, 2 acyl side, 3 side chain; linkers in the order of their positions; H or OH if unused. Non-standard residues stand in square brackets, D forms with d. 4‑aminomethylphenylacetic acid = (4-aminomethyl-phenyl)-acetic acid ring linker, O=C(Cc1ccc(CN[*:1])cc1)[*:2]; Chg = N[C@H](C(=O)O)C1CCCCC1; Nle = CCCC[C@H](N)C(=O)O; Orn = NCCC[C@H](N)C(=O)O; Nva = CCC[C@H](N)C(=O)O; Dap = NC[C@H](N)C(=O)O; Ahp = NCCCCCCC(=O)O; Ahx = NCCCCCC(=O)O; GABA = NCCCC(=O)O; βAla = NCCC(=O)O
# B1: Cyclo[Leu-D-His-Asn-Leu-NH-(CH2)6-CO-Thr-Glu-Arg-Met-Ala] (peptide)
# peptide: cyclo(L[dH]NL[Ahp]TERMA)
# SMILES: CSCC[C@@H]1NC(=O)[C@H](CCCNC(=N)N)NC(=O)[C@H](CCC(=O)O)NC(=O)[C@H]([C@@H](C)O)NC(=O)CCCCCCNC(=O)[C@H](CC(C)C)NC(=O)[C@H](CC(N)=O)NC(=O)[C@@H](Cc2c[nH]cn2)NC(=O)[C@H](CC(C)C)NC(=O)[C@H](C)NC1=O
# B2: Cyclo[Nle-His-Asn-Leu-NH-(CH2)6-CO-Thr-Glu-Arg-Met-Ala] (peptide)
# peptide: cyclo([Nle]HNL[Ahp]TERMA)
# SMILES: CCCC[C@@H]1NC(=O)[C@H](C)NC(=O)[C@H](CCSC)NC(=O)[C@H](CCCNC(=N)N)NC(=O)[C@H](CCC(=O)O)NC(=O)[C@H]([C@@H](C)O)NC(=O)CCCCCCNC(=O)[C@H](CC(C)C)NC(=O)[C@H](CC(N)=O)NC(=O)[C@H](Cc2c[nH]cn2)NC1=O
# B3: Cyclo[Leu-His-Asn-Leu-NH-(CH2)3-CO-Asn-Thr-Glu-Arg-Met-Ala] (peptide)
# peptide: cyclo(LHNL[GABA]NTERMA)
# SMILES: CSCC[C@@H]1NC(=O)[C@H](CCCNC(=N)N)NC(=O)[C@H](CCC(=O)O)NC(=O)[C@H]([C@@H](C)O)NC(=O)[C@H](CC(N)=O)NC(=O)CCCNC(=O)[C@H](CC(C)C)NC(=O)[C@H](CC(N)=O)NC(=O)[C@H](Cc2c[nH]cn2)NC(=O)[C@H](CC(C)C)NC(=O)[C@H](C)NC1=O
# B4: Cyclo[Leu-His-Asn-Leu-NH-(CH2)2-CO-Ala-Thr-Glu-Arg-Met-Ala] (peptide)
# peptide: cyclo(LHNL[βAla]ATERMA)
# SMILES: CSCC[C@@H]1NC(=O)[C@H](CCCNC(=N)N)NC(=O)[C@H](CCC(=O)O)NC(=O)[C@H]([C@@H](C)O)NC(=O)[C@H](C)NC(=O)CCNC(=O)[C@H](CC(C)C)NC(=O)[C@H](CC(N)=O)NC(=O)[C@H](Cc2c[nH]cn2)NC(=O)[C@H](CC(C)C)NC(=O)[C@H](C)NC1=O
# B5: Cyclo[Leu-His-Asn-Leu-NH-(CH2)6-CO-Thr-Glu-Dpr-Met-Ala] (peptide)
# peptide: cyclo(LHNL[Ahp]TE[Dap]MA)
# SMILES: CSCC[C@@H]1NC(=O)[C@H](CN)NC(=O)[C@H](CCC(=O)O)NC(=O)[C@H]([C@@H](C)O)NC(=O)CCCCCCNC(=O)[C@H](CC(C)C)NC(=O)[C@H](CC(N)=O)NC(=O)[C@H](Cc2c[nH]cn2)NC(=O)[C@H](CC(C)C)NC(=O)[C@H](C)NC1=O
# B6: Cyclo[Leu-His-Asn-Leu-NH-X4-X3-X2-X1-CO-Thr-Glu-Arg-Met-Ala] of example 3 (peptide)
# peptide: cyclo(LHNL[4‑aminomethylphenylacetic acid]TERMA)
# SMILES: CSCC[C@@H]1NC(=O)[C@H](CCCNC(=N)N)NC(=O)[C@H](CCC(=O)O)NC(=O)[C@H]([C@@H](C)O)NC(=O)Cc2ccc(cc2)CNC(=O)[C@H](CC(C)C)NC(=O)[C@H](CC(N)=O)NC(=O)[C@H](Cc2c[nH]cn2)NC(=O)[C@H](CC(C)C)NC(=O)[C@H](C)NC1=O
# B7: Cyclo[Leu-His-Asn-Leu-NH-(CH2)5-CO-Thr-Glu-Arg-Met-Ala] (peptide)
# peptide: cyclo(LHNL[Ahx]TERMA)
# SMILES: CSCC[C@@H]1NC(=O)[C@H](CCCNC(=N)N)NC(=O)[C@H](CCC(=O)O)NC(=O)[C@H]([C@@H](C)O)NC(=O)CCCCCNC(=O)[C@H](CC(C)C)NC(=O)[C@H](CC(N)=O)NC(=O)[C@H](Cc2c[nH]cn2)NC(=O)[C@H](CC(C)C)NC(=O)[C@H](C)NC1=O
# B8: Cyclo[Leu-Orn-Asn-Leu-NH-(CH2)6-CO-Thr-Glu-Arg-Met-Ala] (peptide)
# peptide: cyclo(L[Orn]NL[Ahp]TERMA)
# SMILES: CSCC[C@@H]1NC(=O)[C@H](CCCNC(=N)N)NC(=O)[C@H](CCC(=O)O)NC(=O)[C@H]([C@@H](C)O)NC(=O)CCCCCCNC(=O)[C@H](CC(C)C)NC(=O)[C@H](CC(N)=O)NC(=O)[C@H](CCCN)NC(=O)[C@H](CC(C)C)NC(=O)[C@H](C)NC1=O
# B9: Cyclo[Leu-His-Asn-Leu-NH-(CH2)6-CO-Thr-Glu-Arg-Met-Nva] (peptide)
# peptide: cyclo(LHNL[Ahp]TERM[Nva])
# SMILES: CCC[C@@H]1NC(=O)[C@H](CCSC)NC(=O)[C@H](CCCNC(=N)N)NC(=O)[C@H](CCC(=O)O)NC(=O)[C@H]([C@@H](C)O)NC(=O)CCCCCCNC(=O)[C@H](CC(C)C)NC(=O)[C@H](CC(N)=O)NC(=O)[C@H](Cc2c[nH]cn2)NC(=O)[C@H](CC(C)C)NC1=O
# B10: Cyclo[Ile-His-Asn-Leu-NH-(CH2)6-CO-Thr-Glu-Arg-Met-Ala] (peptide)
# peptide: cyclo(IHNL[Ahp]TERMA)
# SMILES: CC[C@H](C)[C@@H]1NC(=O)[C@H](C)NC(=O)[C@H](CCSC)NC(=O)[C@H](CCCNC(=N)N)NC(=O)[C@H](CCC(=O)O)NC(=O)[C@H]([C@@H](C)O)NC(=O)CCCCCCNC(=O)[C@H](CC(C)C)NC(=O)[C@H](CC(N)=O)NC(=O)[C@H](Cc2c[nH]cn2)NC1=O
# B11: Cyclo[Leu-His-Asn-Leu-NH-(CH2)6-CO-Ser-Glu-Arg-Met-Ala] (peptide)
# peptide: cyclo(LHNL[Ahp]SERMA)
# SMILES: CSCC[C@@H]1NC(=O)[C@H](CCCNC(=N)N)NC(=O)[C@H](CCC(=O)O)NC(=O)[C@H](CO)NC(=O)CCCCCCNC(=O)[C@H](CC(C)C)NC(=O)[C@H](CC(N)=O)NC(=O)[C@H](Cc2c[nH]cn2)NC(=O)[C@H](CC(C)C)NC(=O)[C@H](C)NC1=O
# B12: Cyclo[Leu-His-Asn-Leu-NH-(CH2)6-CO-Thr-Glu-Lys-Met-Ala] (peptide)
# peptide: cyclo(LHNL[Ahp]TEKMA)
# SMILES: CSCC[C@@H]1NC(=O)[C@H](CCCCN)NC(=O)[C@H](CCC(=O)O)NC(=O)[C@H]([C@@H](C)O)NC(=O)CCCCCCNC(=O)[C@H](CC(C)C)NC(=O)[C@H](CC(N)=O)NC(=O)[C@H](Cc2c[nH]cn2)NC(=O)[C@H](CC(C)C)NC(=O)[C@H](C)NC1=O
# B13: Cyclo[Leu-His-Asn-Leu-NH-(CH2)6-CO-Asp-Glu-Arg-Met-Ala] (peptide)
# peptide: cyclo(LHNL[Ahp]DERMA)
# SMILES: CSCC[C@@H]1NC(=O)[C@H](CCCNC(=N)N)NC(=O)[C@H](CCC(=O)O)NC(=O)[C@H](CC(=O)O)NC(=O)CCCCCCNC(=O)[C@H](CC(C)C)NC(=O)[C@H](CC(N)=O)NC(=O)[C@H](Cc2c[nH]cn2)NC(=O)[C@H](CC(C)C)NC(=O)[C@H](C)NC1=O
# B14: Cyclo[Leu-His-Asn-Leu-NH-(CH2)6-CO-Thr-Glu-Arg-Met-Gln] (peptide)
# peptide: cyclo(LHNL[Ahp]TERMQ)
# SMILES: CSCC[C@@H]1NC(=O)[C@H](CCCNC(=N)N)NC(=O)[C@H](CCC(=O)O)NC(=O)[C@H]([C@@H](C)O)NC(=O)CCCCCCNC(=O)[C@H](CC(C)C)NC(=O)[C@H](CC(N)=O)NC(=O)[C@H](Cc2c[nH]cn2)NC(=O)[C@H](CC(C)C)NC(=O)[C@H](CCC(N)=O)NC1=O
# B15: Cyclo[Leu-His-Asn-Leu-NH-(CH2)6-CO-Thr-Glu-Arg-Ile-Ala] (peptide)
# peptide: cyclo(LHNL[Ahp]TERIA)
# SMILES: CC[C@H](C)[C@@H]1NC(=O)[C@H](CCCNC(=N)N)NC(=O)[C@H](CCC(=O)O)NC(=O)[C@H]([C@@H](C)O)NC(=O)CCCCCCNC(=O)[C@H](CC(C)C)NC(=O)[C@H](CC(N)=O)NC(=O)[C@H](Cc2c[nH]cn2)NC(=O)[C@H](CC(C)C)NC(=O)[C@H](C)NC1=O
# B16: Cyclo[Leu-His-Asn-Leu-NH-(CH2)6-CO-Leu-Glu-Arg-Met-Ala] (peptide)
# peptide: cyclo(LHNL[Ahp]LERMA)
# SMILES: CSCC[C@@H]1NC(=O)[C@H](CCCNC(=N)N)NC(=O)[C@H](CCC(=O)O)NC(=O)[C@H](CC(C)C)NC(=O)CCCCCCNC(=O)[C@H](CC(C)C)NC(=O)[C@H](CC(N)=O)NC(=O)[C@H](Cc2c[nH]cn2)NC(=O)[C@H](CC(C)C)NC(=O)[C@H](C)NC1=O
# B17: Cyclo[Leu-His-Asn-Leu-NH-(CH2)6-CO-Thr-Glu-Arg-Met-Arg] (peptide)
# peptide: cyclo(LHNL[Ahp]TERMR)
# SMILES: CSCC[C@@H]1NC(=O)[C@H](CCCNC(=N)N)NC(=O)[C@H](CCC(=O)O)NC(=O)[C@H]([C@@H](C)O)NC(=O)CCCCCCNC(=O)[C@H](CC(C)C)NC(=O)[C@H](CC(N)=O)NC(=O)[C@H](Cc2c[nH]cn2)NC(=O)[C@H](CC(C)C)NC(=O)[C@H](CCCNC(=N)N)NC1=O
# B18: Cyclo[Leu-His-Asn-Leu-NH-(CH2)6-CO-His-Glu-Arg-Met-Ala] (peptide)
# peptide: cyclo(LHNL[Ahp]HERMA)
# SMILES: CSCC[C@@H]1NC(=O)[C@H](CCCNC(=N)N)NC(=O)[C@H](CCC(=O)O)NC(=O)[C@H](Cc2c[nH]cn2)NC(=O)CCCCCCNC(=O)[C@H](CC(C)C)NC(=O)[C@H](CC(N)=O)NC(=O)[C@H](Cc2c[nH]cn2)NC(=O)[C@H](CC(C)C)NC(=O)[C@H](C)NC1=O
# Target: T1, blood platelet receptor glycoprotein Ib-IX-V complex (GPIb) (human, UniProt P07359 17-652; P13224 26-206; P14770 17-177; P40197 17-560)
# T1 construct: whole, on cells; also called GPIb complex; GPIb receptor
# T1 sequence (P07359 17-652, chain 1 of 4): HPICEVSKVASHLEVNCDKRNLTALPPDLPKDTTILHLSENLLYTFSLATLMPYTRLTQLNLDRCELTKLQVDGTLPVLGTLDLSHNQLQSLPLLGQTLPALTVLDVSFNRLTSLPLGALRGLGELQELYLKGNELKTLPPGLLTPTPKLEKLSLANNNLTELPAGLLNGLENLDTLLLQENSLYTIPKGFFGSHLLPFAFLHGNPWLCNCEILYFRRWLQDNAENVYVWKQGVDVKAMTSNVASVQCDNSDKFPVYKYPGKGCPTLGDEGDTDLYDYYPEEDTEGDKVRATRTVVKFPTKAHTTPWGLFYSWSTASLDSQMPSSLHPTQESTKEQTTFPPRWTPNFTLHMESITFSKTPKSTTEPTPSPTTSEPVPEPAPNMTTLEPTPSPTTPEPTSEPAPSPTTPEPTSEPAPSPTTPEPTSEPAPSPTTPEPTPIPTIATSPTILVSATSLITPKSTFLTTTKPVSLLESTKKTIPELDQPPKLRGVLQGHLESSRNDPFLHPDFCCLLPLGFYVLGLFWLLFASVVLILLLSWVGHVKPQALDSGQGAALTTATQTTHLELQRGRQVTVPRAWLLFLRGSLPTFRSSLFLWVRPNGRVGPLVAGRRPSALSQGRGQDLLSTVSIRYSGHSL
# T1 sequence (P13224 26-206, chain 2 of 4): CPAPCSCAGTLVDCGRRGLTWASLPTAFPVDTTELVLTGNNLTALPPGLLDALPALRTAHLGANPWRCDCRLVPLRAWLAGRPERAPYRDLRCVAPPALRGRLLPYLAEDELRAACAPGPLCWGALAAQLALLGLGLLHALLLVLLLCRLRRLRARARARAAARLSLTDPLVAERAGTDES
# T1 sequence (P14770 17-177, chain 3 of 4): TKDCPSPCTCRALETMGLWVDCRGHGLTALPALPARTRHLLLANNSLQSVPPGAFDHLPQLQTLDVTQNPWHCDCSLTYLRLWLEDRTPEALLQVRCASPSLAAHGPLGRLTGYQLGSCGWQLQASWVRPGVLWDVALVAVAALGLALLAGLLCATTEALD
# T1 sequence (P40197 17-560, chain 4 of 4): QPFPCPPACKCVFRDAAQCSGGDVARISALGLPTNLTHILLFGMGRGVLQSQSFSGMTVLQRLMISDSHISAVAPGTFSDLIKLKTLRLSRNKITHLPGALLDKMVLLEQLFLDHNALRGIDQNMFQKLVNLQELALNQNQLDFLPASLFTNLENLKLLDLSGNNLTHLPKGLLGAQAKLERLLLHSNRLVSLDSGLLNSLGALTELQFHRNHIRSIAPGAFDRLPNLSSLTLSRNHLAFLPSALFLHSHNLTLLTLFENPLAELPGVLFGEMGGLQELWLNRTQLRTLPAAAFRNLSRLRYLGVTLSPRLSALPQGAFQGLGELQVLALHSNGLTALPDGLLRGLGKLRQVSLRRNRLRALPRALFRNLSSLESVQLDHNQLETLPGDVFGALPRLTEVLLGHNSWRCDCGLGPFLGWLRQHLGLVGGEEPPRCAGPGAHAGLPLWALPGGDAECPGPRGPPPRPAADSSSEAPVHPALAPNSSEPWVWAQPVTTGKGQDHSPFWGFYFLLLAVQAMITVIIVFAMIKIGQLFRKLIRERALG
# Assay: inhibition of static adhesion of human platelets to coated vWF-A1; grade B = IC50 between 1 µM and 10 µM
# Procedure: Platelet rich plasma was carefully transferred again to fresh containers, PGE1 (0.5 μg/ml, Sigma) was added and the suspension was allowed to rest for 5 min. This was followed by another centrifugation step for 15 min at 360 g. The supernatant was discarded and the cell pellets were carefully resuspended in tyrode buffer (NaCl, 137 mM (Sigma S-3014); KCl, 2.7 mM (Sigma P-9541); NaHCO₃,12 mM (Riedel deHaen 31437); NaH₂PO₄×2H₂O, 0.36 mM (Merck 6345); MgCl₂×6 H₂O, 1 mM (Sigma M-2670); Hepes, 10 mM (Sigma H-1016); glucose, 5.6 mM (Merck 8342); BSA, 0.1% (Sigma A7906)), and PGE1 (0.25 μg/ml) was added. After 5 min of resting the suspension was spun down for 15 min at 300 g. The supernatant was discarded and the pellets were carefully resuspended in TBS buffer (Tris-HCl, 50 mM (Fluka 93371); NaCl, 120 mM (Sigma S-3014); KCl, 2.7 mM (Sigma P-9541); CaCl₂, 0.05 mM (Sigma C-3306); MgCl₂×6 H₂O, 2 mM (Sigma M-2670); BSA, 0.1% (Sigma A7906); pH 7.4). The platelet count was adjusted to 2×10⁵ cells/μl, and the suspensions from individual donors were pooled at this stage. The platelets were allowed to rest for 30 min at room temperature before calcein AM (2.5 μM per 2×10⁵ cells/pi (Molecular Probes C-3099)) was added. This was followed by 15 min incubation in the dark. Cells were diluted to 5×10⁴ cells/μl and ReoPro (3 μg/ml (Centocor B. V., Leiden, N L)) was added, followed by a 10 min incubation period in the dark before adding the platelets to the assay plates.
# 96 well plates (Greiner hb, black, clear bottom, F, 655097) were coated with human recombinant vWF-A1 domain (1.5 μg/well, AA 475-706, expressed in E. coli) in Tris buffer (pH 7.4; Tris-HCl, 25 mM; NaCl, 150 mM) and incubated for 1 h at room temperature. After washing the wells 3× with TBS, blocking buffer (TBS with 5% BSA) was added followed by an incubation for 1 h. The wells were washed again 3× with TBS before 200 μl TBS were added to each well, preventing them from drying out. TBS was flicked out and serial dilutions of the test compound were added. The washed and calcein AM labeled thrombocytes were added to the wells (2.5×10⁶ cells/well). Following an adhesion period of 1.5 h in the dark the wells were washed 3× with TBS. Measurement of fluorescence per well was performed in a SpectraMax M5 reader (Molecular Devices). From the raw data % inhibition and IC₅₀ values were calculated.
row,IC50,Binder
1,1 to 10 µM,B1
2,1 to 10 µM,B2
3,1 to 10 µM,B3
4,1 to 10 µM,B4
5,1 to 10 µM,B5
6,1 to 10 µM,cyclo([Chg]HNL[Ahp]TERMA) [Cyclo[Chg-His-Asn-Leu-NH-(CH2)6-CO-Thr-Glu-Arg-Met-Ala]]
7,1 to 10 µM,B6
8,1 to 10 µM,B7
9,1 to 10 µM,B8
10,1 to 10 µM,B9
11,1 to 10 µM,B10
12,1 to 10 µM,B11
13,1 to 10 µM,B12
14,1 to 10 µM,B13
15,1 to 10 µM,B14
16,1 to 10 µM,B15
17,1 to 10 µM,B16
18,1 to 10 µM,B17
19,1 to 10 µM,B18
